In patent US20250357519A1, “APPLICATIONS OF O2-INSENSITIVE FORMATE DEHYDROGENASE” (UNIVERSITY OF MARYLAND, BALTIMORE, priority 2022, published 2025):

Key:
[1] = Phenazine ethosulfate (PES)/dichlorophenolindophenol (DCPIP) assay of formate oxidation by DvH-FDH2; assay type: biochemical, Desulfovibrio vulgaris Hildenborough; conditions: PES/DCPIP-based
Description: FIG. 38. Experimental workflow for aerobic PES/DCPIP assay. Prepare cuvette (1), fill with reaction mix (2), add stirrer (3), initiate kinetics by the addition of DvH-FDH2 while the contents of the cuvette are being mixed (4), and continue data collection until completion (5). Blue arrows shown at the bottom in steps 4 and 5 denote stirring.
FIG. 39. Experimental workflow for anaerobic PES/DCPIP assay. Setup cuvette (1,2), add reaction mix (3), gas with argon (4), start the reaction by injecting DvH-FDH2 (5), and collect data until the reaction goes to completion (6). Blue arrows shown at the bottom in steps 4-6 represent stirring.
In this dye-linked assay, PES (Em,7=+65 mV) serves as the primary electron acceptor. Following its reduction by FDH2, PES nonenzymatically transfers electrons to a second dye, DCPIP, facilitating spectrophotometric detection.^91 Workflows are described in FIGS. 38 and 39. PES was chosen over PMS because of its long-term stability.^120 Furthermore, necessary precautions were taken in handling and preparing the reagents, including protecting the reagents from light.^187 DvH-FDH2 was assayed in 1 mM PES (Sigma-Aldrich P4544-1G)/93 μM DCPIP (98% pure; Acros 152870100) in 50 mM Tris pH 8.0. […] Assays were performed using a UV-2600i spectrophotometer (Shimadzu Life Sciences) equipped with T2 Peltier/stirrer accessory (Quantum) and monitored at 600 nm. […]

[2] = Oxygen consumption (Clark-type O2 electrode oximetry); assay type: biochemical, Desulfovibrio vulgaris Hildenborough
[3] = H2O2 production, Amplex Red (AR) method; assay type: biochemical, Desulfovibrio vulgaris Hildenborough; conditions: aerobic DvH-FDH2 catalysis, AR assay
[4] = H2O2 production, coumarin boronic acid (CBA) assay; assay type: biochemical, Desulfovibrio vulgaris Hildenborough; conditions: aerobic catalysis, formate between 1 and 10 Km
Description: Coumarin Boronic Acid (CBA) Assay. 10 mg of coumarin boronic acid (CBA) Cayman Chemicals 14051) was dissolved in 3.33 mL of DMSO. 101 μL of the CBA stock and 1.6 μL 0.5MDTPA were added to 3.9 mL 50 mM sodium phosphate pH 7.4 to produce a 2× working solution. The remaining steps essential identical to those used in the AR assay except that the plate was shaken at 400 rpm in an incubator (23° C.) for 15 min prior to CBA addition. Fluorescence detection was initiated by addition of 50 μL of the CBA 2× working solution, and the plate was scanned in fluorescence mode (excitation 332 nm and emission 470 nm). This method was also used in the context of redox bifurcation to quantify H2O2 production by DvH-FDH2 in the presence of 30 μM cytochrome c. Independently, the latter was incubated with H2O2 for the same duration (in the absence of DvH-FDH2) to assess the extent of peroxidase activity. Cytochrome c concentration was estimated as follows: oxidized ε410=106.1 mM^−1 cm^−1 and reduced ε550=29.5 mM^−1 cm^−1.
The following controls were common to both CBA and AR assays. (1) Heat-denatured DvH-FDH2, (2) addition of catalase (100 U/mL), (3) addition of SOD (10 U/mL), (4) FDH2 omitted, (5) fluorogenic substrate excluded, (6) formate excluded, and (7) buffer only.

equine cytochrome c = test: Reduction of equine cytochrome c by DvH-FDH2; assay type: biochemical

B1: DvH-FDH2 (protein)
chain 1: MRMPRRTFIKLASASAGALAFAGLGQSLAPTVARAAELKIAKAKVTPSVCCFCAVGCGLLVYTDTQTGRSINIEGDPDHPTNEGTLCPKGASIWQTTERSKRVTKVLYRAPGAAAWEEKSWDWALPRIARKIKETRDATFELTNDKGQTVNRTRGIASVGSAAVDNEEGWLMQAMMRALGLVYIESHARIUHSSTVGALAESYGRGAMTNHWIDLKNSDVILIMGSNAAENHPISFKWVTRAQERGATLIHVDPRFTRTSAKADIHAHIRSGTDIAFFGGLIRYIMENDLFFRQYVVDYTNASYIVGADYGFADGLFTGFDAEKGTYNTKKWAFAADENGMTLKDPTLNDPRCVFQLMKAHYARYDRKTVSDVTGISEEQLATLWSTFASTGKPDRAGTILYAMGQCQHTVGVQNIRALSMIQLLLGNIGIAGGGVNALRGESNVQGTTDISLLCDNLSGYLPTPKASWATFDDYVKGTTPVDKDPKSANWWSNRGKYLASYMKSVYPTASHQDGYLWHPKVDDGKITDYSWLQIFERMSKGGFKGAFVWGQNPCAGGANAGKNRKAMETLDWMVVVNLFENESSLFWKGPGVDPAKVKTEVFFLPACMSVEKGGSIANSGRWLQWREPGPKPMGDSRSDGDIVLDLYDEIRKLYREEKGAFPEPVLALDTDYRTDGKYDHHKVAKTLNGKFLTDVTIGDKTYKAGQQVPGFAMLQADGSTTSGCWIFTGCYTDAGNMMARRDRTQTPEQAAIGLFPNWSYAWPANRRILYNRAAVDMTGKPFDPKRAVIAWNGEKWVGDVPDGGWKPGEKLPFIMIREGRGQLFGPGRVDGPFPEHYEPFESPLESHPFSKQRVNPTALAFSHEPKAVRDKRYPFICTTYRVTEQWQSGTMTRNTGWLKEMQPEGFCEISRELAKELGIANGDAVVLESLRGKVQVVAIVTPRLKPFKVMGEVMHEVGIPWQFGWGQHVGKGDSANLLSPSVGDPNTGIPETKVFMVNLRKA
chain 2: MRPLGSLPQGMRRVSRRHIREAYMNGKTFFIDQTRCTACRGCQAACKQWKKFGSIETRNTGSYQNPPDLGPSTFKLVRFNEVEVDGKLKWLFFPEQCRHCLEPPCKMVADALIPGAIVQDAETGAVLYTEKTKGLDYMEVRSACPYDIPRQDPATGLLTKCNMCIDRVQNGMLPACVKTCPTGTMHFGDRADMLELAQKRLGEVKKRSPAALLADSDLVRVLYLCELAPANYHSHMVAEADTSRIGPFSRRALLRLRPFA
modifications: non-natural residues; left off: small tags and cut ends
kcat/Km for formate oxidation, fold higher than aerotolerant Mo-Cys-FDH from Rhodobacter capsulatus (NAD^+) [1]: ~500 fold | electron flux towards hydrogen peroxide generation (u/v value) ([2]; oximetry, catalase added after equilibrium): ~80% | fraction of electrons from formate ending up in H2O2 (x/y value) ([2]; oximetry, catalase added after equilibrium, likely an underestimate): roughly one quarter | O2 uptake lower in presence of catalase (initial velocities) ([2]; presence vs absence of catalase): 50% | H2O2 produced per mole of formate oxidized [3]: roughly 0.75 mol | H2O2 production [4]: 64±6% | native equine cytochrome c reduction (equine cytochrome c; anaerobic conditions): stoichiometric reduction | native equine cytochrome c reduced (equine cytochrome c; in air, 30 μM cytochrome c, 10 μM formate): ~80%
